Reference: patent US20080227123A1

Target: B cell antigen receptor (BCR; surface IgM) on DT40-ASF cells (chicken)
Test: cell-based or functional assay

Substance: antibody M4 (mouse-derived anti-chicken IgM monoclonal antibody)
- recovery of cell proliferation of doxycycline-treated DT40-ASF cells: > 1 µg/mL
